Test: Solubility study of propofol: minimum conjugate concentration required to solubilize propofol
Format: physicochemical
Settings: 1% (w/v) propofol in saline based solution
Text: Table 15 listed the minimum concentration of the conjugates required to solubilize propofol as a solubility test reference.

Q: With “Cholecalciferol-diethylene-triamineisomal-totriose-mPEG11” as the substance, how does the “Concentration (minimum concentration of the conjugate required to solubilize propofol)” value read?
A: 2.2 % w/v

Q: With “Cholesterypropanediamineascorbate-mPEG11” as the substance, how does the “Concentration (minimum concentration of the conjugate required to solubilize propofol)” value read?
A: 4.6 % w/v

Q: Which results are given for “Cholesterypropanediaminegluconate-mPEG11”?
A: Concentration (minimum concentration of the conjugate required to solubilize propofol): 5.3 % w/v; Conjugate concentration needed to solubilize propofol, comparison in words: much high conjugate concentration was required

Q: With “Cholesterypropanediamineisomaltotriose-mPEG11” as the substance, how does the “Concentration (minimum concentration of the conjugate required to solubilize propofol)” value read?
A: 2.0 % w/v

Q: For “Cholesterypropanediaminelactobionate-mPEG11”, which “Concentration (minimum concentration of the conjugate required to solubilize propofol)” value is on record?
A: 3.2 % w/v

Q: For “Cholesterytriethylenetetraminelactobionate-di-mPEG11”, which “Concentration (minimum concentration of the conjugate required to solubilize propofol)” value is on record?
A: 1.6 % w/v

Q: Which “Concentration (minimum concentration of the conjugate required to solubilize propofol)” value does the source give for “Retinoylpropanediaminelactobionate-mPEG11” here?
A: 2.9 % w/v

Q: For “Tocopherylpropanediaminelactobionate-mPEG11”, which “Concentration (minimum concentration of the conjugate required to solubilize propofol)” value is on record?
A: 3.3 % w/v

Q: What about the “Conjugate concentration needed to solubilize propofol, comparison in words” value of the same substance?
A: the lowest molar concentration

Test: Solubility study of voriconazole: minimum polymer to drug ratio required to solubilize voriconazole
Settings: 1% (w/v) voriconazole in saline based solution
Method: 1% (w/v) of voricazole was prepared in a saline based solution with different PEG-carbohydrate conjugates.

Q: For “N,N,N-oleoyl-lactobionoyl-mPEG(12)propanediamine”, which “Polymer concentration needed to solubilize voriconazole, comparison in words” value is on record?
A: much high concentration

Q: And the “Solubilizing Voriconazole (min. polymer to drug ratio)” value?
A: 20

— patent US10835608B2, “Polymer-carbohydrate conjugates for drug delivery technology” (priority 2013, dated 2020)
